Values of other authors, collected in PMC6295873 (Chemical Science, 2018).

Columns and labels:
[1] = MUC1-based anticancer-vaccines; ref 39 (preceding sentence)

Substance | half-life in blood [min] | immunogenicity [1]
KP10: endogenous neuropeptide acting through its cognate G-protein-coupled receptor, KiSS1R | < 1 | –
natural MUC1 glycoprotein: densely O-glycosylated human mucin glycoprotein | – | very low immunogenicity
